Legend:
APRIL (TNFL13) = assay: SPR
LIGHT (TNFL14) = assay: SPR

“Purified recombinant EV CrmD protein (receptor)” was tested, and the Kd (APRIL (TNFL13)) was 110 µM and the Kd (LIGHT (TNFL14)) was 0.14 µM.

From patent US20090104178A1
